This test in a line: Acyl-CoA thioesterase assay with radiolabeled acyl-CoA, lysate of cells over-expressing ACH1. It is filed as biochemical. The conditions noted are these: lysate of transfected E. coli cells. The method, then: In these assays, radiolabeled acyl-CoA is used as a substrate in which the [^14C] label is on the fatty acid portion of the molecule, and the enzyme activity is measured by the amount of labeled free fatty acid released by the action of the enzyme. Typically, the acyl group is palmitoyl-CoA (16:0 Co-A) or oleoyl-CoA (18:1-CoA). Because the reaction pH must be below 9, as a pH above this level causes base-catalyzed hydrolysis of the substrate, in most experiments the enzyme activity is measured between pH 7 and 9. The reactions are conducted at room temperature. The reaction volume is generally kept from about 32 μl to 100 μl. Although the reaction times may vary, typical incubation times are 10-15 minutes, which is sufficient for even small amounts of protein.
The protein solution to be assayed, which can be purified protein over-expressed in E. coli or unpurified protein in a plant extract or a plant subfraction, such as purified chloroplasts, is brought to the desired volume with buffer (20 mM Tris-HCl, pH 7.2, 200 mM NaCl and 1 mM EDTA). […] An 850 μl aliquot of the hexane phase is added to 3 ml BCS, and the amount of radioactivity determined in a scintillation counter.
The level of acyl-CoA thioesterase activity is determined by the amount of radioactivity that is found in the hexane phase. […]

“Also recorded” adds a separate entry of the source.

B1: ACH1: Arabidopsis acyl-CoA thioesterase ACH1 (SEQ ID NO:5), expressed as fusion protein with a 6 histidine tag; assayed as cell lysate (protein, listed as Arabidopsis thaliana)
chain: MNTESVVEFLGNVTLLQRLPSSSLKRISEVVVFKGYDRGDYVVRENQNVDGVYFLLQGQAQVLRSAGEENYQEFPLKRYDFFGHGIFGDVYSADVVAVTELTCLLLMSDHRALLEIKSVSDSDKERCLVEDILYLEPLDLNVYRGFTPPNAPTYGKVYGGQLVGQALAAASKTVETMKIVHNFHCYFLLVGDINIPIIYDVNRLRDGNNFATRSVDARQKGKTIFTLFASFQKKQQGFIHQESTMPHTPAPETLLPREEMLERLVTEPLLPRDYRNQVATEISVPFPIDIRFCEPNRSTKQNKSPPRLKYWFRAKGKLSDDDQALHRCVVAFASDLIFATISLNPHRREGMSVAALSLDHSMWFHRPVRADDWLLFVIVSPTATESRGFATGKMFNRKGELVVSLTQEAVLREAVTIKPSFGAKL
B1: the “acyl-CoA thioesterase activity of cell lysate compared with control plasmid cells” value is reported as “no increased acyl-CoA thioesterase activity was observed in cell lysates; also recorded: no greater than the level of activity in cells transfected with a control plasmid”.

The values are drawn from patent publication US6878861B2, “Acyl coenzyme A thioesterases” (Washington State University Research Foundation, priority 2000, dated 2005).
